Experiments:
[1] = target: human GITR expressed on the cell surface (human) (UniProt Q9Y5U5); test: flow cytometry on Jurkat/hCD20/hGITR cells, 18 pM to 300 nM
[2] = target: cynomolgus monkey GITR expressed on the cell surface (Macaca fascicularis (cynomolgus monkey)); test: flow cytometry on Jurkat/hCD20/MfGITR cells, 18 pM to 300 nM
[3] = target: Jurkat/hCD20 cells (human CD20, no GITR; negative control cell line) (human) (UniProt P11836); test: flow cytometry on Jurkat/hCD20 control cells, 18 pM to 300 nM
Jurkat/hCD20 cells (human CD20, no GITR; negative control cell line) (human), sequence (P11836 whole entry): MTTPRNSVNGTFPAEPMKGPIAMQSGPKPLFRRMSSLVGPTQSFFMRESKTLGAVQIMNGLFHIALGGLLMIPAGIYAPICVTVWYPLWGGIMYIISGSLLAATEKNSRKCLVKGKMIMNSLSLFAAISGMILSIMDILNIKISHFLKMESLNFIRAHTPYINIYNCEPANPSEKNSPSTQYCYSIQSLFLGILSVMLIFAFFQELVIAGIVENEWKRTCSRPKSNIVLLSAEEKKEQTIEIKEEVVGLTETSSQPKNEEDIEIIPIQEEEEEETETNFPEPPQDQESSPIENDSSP

[4] = target: human GITR expressed on the cell surface (human) (UniProt Q9Y5U5); test: flow cytometry on Jurkat/hCD20/hGITR cells; max MFI over secondary antibody alone
[5] = target: cynomolgus monkey GITR expressed on the cell surface (Macaca fascicularis (cynomolgus monkey)); test: flow cytometry on Jurkat/hCD20/MfGITR cells; max MFI over secondary antibody alone
[6] = target: Jurkat/hCD20 cells (human CD20, no GITR; negative control cell line) (human) (UniProt P11836); test: flow cytometry on Jurkat/hCD20 control cells; max MFI over secondary antibody alone
[7] = target: human GITR expressed on the cell surface (human) (UniProt Q9Y5U5); test: flow cytometry, AF647 antibody at 200 nM; human primary CD4+ CD25+ T-cells, donor 26001
[8] = target: human GITR expressed on the cell surface (human) (UniProt Q9Y5U5); test: flow cytometry, AF647 antibody at 200 nM; human primary CD4+ CD25+ T-cells, donor 2700*
[9] = target: human GITR expressed on the cell surface (human) (UniProt Q9Y5U5); test: flow cytometry, AF647 antibody at 200 nM; human primary CD4+ CD25+ T-cells, donor 7900C
[10] = target: human GITR expressed on the cell surface (human) (UniProt Q9Y5U5); test: flow cytometry, AF647 antibody at 200 nM; human primary CD4+ CD25+ T-cells, donor 8700C
[11] = target: human GITR expressed on the cell surface (human) (UniProt Q9Y5U5); test: flow cytometry, AF647 antibody at 200 nM; human primary CD8+ CD25+ T-cells, donor 26001
[12] = target: human GITR expressed on the cell surface (human) (UniProt Q9Y5U5); test: flow cytometry, AF647 antibody at 200 nM; human primary CD8+ CD25+ T-cells, donor 2700*
[13] = target: human GITR expressed on the cell surface (human) (UniProt Q9Y5U5); test: flow cytometry, AF647 antibody at 200 nM; human primary CD8+ CD25+ T-cells, donor 7900C
[14] = target: human GITR expressed on the cell surface (human) (UniProt Q9Y5U5); test: flow cytometry, AF647 antibody at 200 nM; human primary CD8+ CD25+ T-cells, donor 8700C
[15] = target: cynomolgus monkey GITR expressed on the cell surface (Macaca fascicularis (cynomolgus monkey)); test: flow cytometry, AF647 antibody at 200 nM; cynomolgus primary CD4+ CD69+ T-cells, donor 58945
[16] = target: cynomolgus monkey GITR expressed on the cell surface (Macaca fascicularis (cynomolgus monkey)); test: flow cytometry, AF647 antibody at 200 nM; cynomolgus primary CD4+ CD69+ T-cells, donor 58946
[17] = target: cynomolgus monkey GITR expressed on the cell surface (Macaca fascicularis (cynomolgus monkey)); test: flow cytometry, AF647 antibody at 200 nM; cynomolgus primary CD4+ CD69+ T-cells, donor 58947
[18] = target: cynomolgus monkey GITR expressed on the cell surface (Macaca fascicularis (cynomolgus monkey)); test: flow cytometry, AF647 antibody at 200 nM; cynomolgus primary CD4+ CD69+ T-cells, donor 58948
[19] = target: cynomolgus monkey GITR expressed on the cell surface (Macaca fascicularis (cynomolgus monkey)); test: flow cytometry, AF647 antibody at 200 nM; cynomolgus primary CD8+ CD69+ T-cells, donor 58945
[20] = target: cynomolgus monkey GITR expressed on the cell surface (Macaca fascicularis (cynomolgus monkey)); test: flow cytometry, AF647 antibody at 200 nM; cynomolgus primary CD8+ CD69+ T-cells, donor 58946
[21] = target: cynomolgus monkey GITR expressed on the cell surface (Macaca fascicularis (cynomolgus monkey)); test: flow cytometry, AF647 antibody at 200 nM; cynomolgus primary CD8+ CD69+ T-cells, donor 58947
[22] = target: cynomolgus monkey GITR expressed on the cell surface (Macaca fascicularis (cynomolgus monkey)); test: flow cytometry, AF647 antibody at 200 nM; cynomolgus primary CD8+ CD69+ T-cells, donor 58948
[23] = target: human GITR expressed on the cell surface (human) (UniProt Q9Y5U5); test: flow cytometry, AF647 antibody at 200 nM; human primary non-activated CD4+ CD25- T-cells, donor 26001
[24] = target: human GITR expressed on the cell surface (human) (UniProt Q9Y5U5); test: flow cytometry, AF647 antibody at 200 nM; human primary non-activated CD4+ CD25- T-cells, donor 2700*
[25] = target: human GITR expressed on the cell surface (human) (UniProt Q9Y5U5); test: flow cytometry, AF647 antibody at 200 nM; human primary non-activated CD4+ CD25- T-cells, donor 7900C
[26] = target: human GITR expressed on the cell surface (human) (UniProt Q9Y5U5); test: flow cytometry, AF647 antibody at 200 nM; human primary non-activated CD4+ CD25- T-cells, donor 8700C
[27] = target: human GITR expressed on the cell surface (human) (UniProt Q9Y5U5); test: flow cytometry, AF647 antibody at 200 nM; human primary non-activated CD8+ CD25- T-cells, donor 26001
[28] = target: human GITR expressed on the cell surface (human) (UniProt Q9Y5U5); test: flow cytometry, AF647 antibody at 200 nM; human primary non-activated CD8+ CD25- T-cells, donor 2700*
[29] = target: human GITR expressed on the cell surface (human) (UniProt Q9Y5U5); test: flow cytometry, AF647 antibody at 200 nM; human primary non-activated CD8+ CD25- T-cells, donor 7900C
[30] = target: human GITR expressed on the cell surface (human) (UniProt Q9Y5U5); test: flow cytometry, AF647 antibody at 200 nM; human primary non-activated CD8+ CD25- T-cells, donor 8700C
[31] = target: cynomolgus monkey GITR expressed on the cell surface (Macaca fascicularis (cynomolgus monkey)); test: flow cytometry, AF647 antibody at 200 nM; cynomolgus primary non-activated CD4+ CD69- T-cells, donor 58945
[32] = target: cynomolgus monkey GITR expressed on the cell surface (Macaca fascicularis (cynomolgus monkey)); test: flow cytometry, AF647 antibody at 200 nM; cynomolgus primary non-activated CD4+ CD69- T-cells, donor 58946
[33] = target: cynomolgus monkey GITR expressed on the cell surface (Macaca fascicularis (cynomolgus monkey)); test: flow cytometry, AF647 antibody at 200 nM; cynomolgus primary non-activated CD4+ CD69- T-cells, donor 58947
[34] = target: cynomolgus monkey GITR expressed on the cell surface (Macaca fascicularis (cynomolgus monkey)); test: flow cytometry, AF647 antibody at 200 nM; cynomolgus primary non-activated CD4+ CD69- T-cells, donor 58948
[35] = target: cynomolgus monkey GITR expressed on the cell surface (Macaca fascicularis (cynomolgus monkey)); test: flow cytometry, AF647 antibody at 200 nM; cynomolgus primary non-activated CD8+ CD69- T-cells, donor 58945
[36] = target: cynomolgus monkey GITR expressed on the cell surface (Macaca fascicularis (cynomolgus monkey)); test: flow cytometry, AF647 antibody at 200 nM; cynomolgus primary non-activated CD8+ CD69- T-cells, donor 58946
[37] = target: cynomolgus monkey GITR expressed on the cell surface (Macaca fascicularis (cynomolgus monkey)); test: flow cytometry, AF647 antibody at 200 nM; cynomolgus primary non-activated CD8+ CD69- T-cells, donor 58947
[38] = target: cynomolgus monkey GITR expressed on the cell surface (Macaca fascicularis (cynomolgus monkey)); test: flow cytometry, AF647 antibody at 200 nM; cynomolgus primary non-activated CD8+ CD69- T-cells, donor 58948
[39] = target: hGITR.mmH (soluble monomeric recombinant human GITR ectodomain protein) (human); test: blocking ELISA: 1.5 nM hGITR.mmH pre-incubated with antibody (up to 3 µM), binding to plate-coated hGITR-L
hGITR.mmH (soluble monomeric recombinant human GITR ectodomain protein) (human), sequence (chain, as listed by the source limits assumed): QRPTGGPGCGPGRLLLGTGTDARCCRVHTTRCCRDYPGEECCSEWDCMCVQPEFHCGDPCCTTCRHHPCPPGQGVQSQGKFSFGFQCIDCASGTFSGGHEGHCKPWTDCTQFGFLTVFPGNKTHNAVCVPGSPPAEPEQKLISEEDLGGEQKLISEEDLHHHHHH

human GITR expressed on the cell surface (human), sequence (Q9Y5U5 26-241 limits assumed): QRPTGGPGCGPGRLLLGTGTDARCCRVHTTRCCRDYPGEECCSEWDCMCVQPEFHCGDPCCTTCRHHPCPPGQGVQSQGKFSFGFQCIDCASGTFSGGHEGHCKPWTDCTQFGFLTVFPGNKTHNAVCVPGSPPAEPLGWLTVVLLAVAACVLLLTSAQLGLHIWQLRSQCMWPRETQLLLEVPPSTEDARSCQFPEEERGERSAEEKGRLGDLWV

Max MFI [1]: 1090 MFI | Max MFI [2]: 1360 MFI | Max MFI [3]: 1070 MFI | Fold Binding [4]: 1.09 fold | Fold Binding [5]: 1.1 fold | Fold Binding [6]: 1.15 fold | Max MFI [7]: 1230 MFI | Max MFI [8]: 2080 MFI | Max MFI [9]: 2280 MFI | Max MFI [10]: 1920 MFI | Max MFI [11]: 1100 MFI | Max MFI [12]: 1990 MFI | Max MFI [13]: 2090 MFI | Max MFI [14]: 1970 MFI | Max MFI [15]: 1110 MFI | Max MFI [16]: 803 MFI | Max MFI [17]: 1230 MFI | Max MFI [18]: 1030 MFI | Max MFI [19]: 1090 MFI | Max MFI [20]: 650 MFI | Max MFI [21]: 921 MFI | Max MFI [22]: 1130 MFI | Max MFI [23]: 827 MFI | Max MFI [24]: 1410 MFI | Max MFI [25]: 1330 MFI | Max MFI [26]: 1060 MFI | Max MFI [27]: 644 MFI | Max MFI [28]: 1130 MFI | Max MFI [29]: 1140 MFI | Max MFI [30]: 1780 MFI | Max MFI [31]: 730 MFI | Max MFI [32]: 650 MFI | Max MFI [33]: 825 MFI | Max MFI [34]: 817 MFI | Max MFI [35]: 565 MFI | Max MFI [36]: 455 MFI | Max MFI [37]: 601 MFI | Max MFI [38]: 512 MFI | % Max Inhibition [39]: -6%
Substance: IgG1 isotype control (antibody)
